One experiment concerns 786-O cells. The experiment can be described thus: Internalization by FACS immune-fluorescence staining, 786-O. Format: cell-based, human. As for the experimental part: Briefly, 2×10^5 cells were harvested from a tissue culture flask by treatment with 0.25% Trypsin/EDTA and then incubated with 10 μg/ml of the lead antibodies or control antibodies in FACS buffer (1×PBS with 0.1% BSA) for 30 mins at 4° C. The cells were washed at 4° C. to remove unbound antibodies and kept on ice or shifted to 37° C. At the set time points (0 h, 4 h, 24 h), cells were incubated with PE-conjugated anti human Fc (Abcam, Ab98596) for 30 mins at 4° C. and then analyzed by flow cytometry. The internalization ratio was calculated by subtracting the 37° C. MFI from the 4° C. MFI, and then compared with 4° C. MFI.
Four cell lines ([…]), Caki-1, Raji, MCF-7) were utilized in the internalization assay. Target (CD70) copy numbers were determined via the QIFIKIT (DAKO, K0078). Briefly, cells were labeled with a primary mouse monoclonal antibody against CD70. Cells, Set-up beads, Calibration beads (from the kit) were then labeled in parallel with a fluorescein-conjugated anti-mouse secondary antibody. The fluorescence is correlated with the number of bound primary antibody molecules on the cells and on the beads. Samples were subsequently analyzed on the flow cytometer and copy number determined based on the calibration curve (Table 11). For internalization assay, 3×10^5 cells were incubated at 4° C. for 30 min with 10 µg/ml 2E7 in FACS buffer (1×PBS containing 0.1% BSA). Cells were washed at 4° C. to remove unbound material and kept on ice or shifted to 37° C. for different lengths of time. At progressive timepoints ([…], 0.5, 1, 2, 3, 4 hr) cells were stained with PE-conjugated anti-human Fc for 30 min at 4° C. and analyzed by flow cytometry. Internalization rate were calculated by subtracting the mean fluorescence intensity (MFI) of cell surface-bound antibody at 37° C. at each time point from the MFI of cell surface-bound antibody at 4° C. at time 0, then divided by the MFI of the cell surface-bound antibody at 4° C. at time 0.
For orientation: A flow cytometer gives signals particle by particle.

Experiment [1] addresses T1, rat CD70 extra-cellular domain (ECD) (Rattus norvegicus, UniProt M0R613).
T1 construct: human, rat, or mouse CD70 extra-cellular domain (ECD) linked to His tag; His tag; purchased ACRO systems
T1 sequence (M0R613 1-194): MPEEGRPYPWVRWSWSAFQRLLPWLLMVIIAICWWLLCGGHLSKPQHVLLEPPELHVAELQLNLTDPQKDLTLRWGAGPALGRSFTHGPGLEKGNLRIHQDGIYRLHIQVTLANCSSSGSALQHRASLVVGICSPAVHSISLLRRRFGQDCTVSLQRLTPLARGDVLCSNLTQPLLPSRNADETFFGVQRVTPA
The experiment can be described thus: Biolayer interferometry (BLI), rat CD70. Particulars: for Response: *Response below range of quantification. Format: binding. How it is done: Recombinant proteins consisting of human, rat, or mouse CD70 extra-cellular domain (ECD) linked to His tag was purchased (from ACRO systems). 69A7 and 2E7 (20 nM) were immobilized on anti-human IgG Fc biosensor tips (ForteBio). Binding assays using one concentration (100 nM) of recombinant protein in solution were performed using Octet RED (ForteBio). Association time was set at 180s and dissociation time was set at 300s. Binding affinity was calculated using ForteBio Data Acquisition 6.3 software. Affinity was derived by fitting the kinetic data to a 1:1 Langmuir binding model utilizing global fitting algorithms. […] Binding assays for 2E7 using multiple dilutions (from 200 nM down to 3.13 nM) of species' recombinant CD70 ECD proteins in solution were also performed using the same method.
(Biolayer interferometry detects binding as a change in optical thickness at a sensor tip.)

For experiment [2], the system named is cynomolgus CD70 recombinant protein. The experiment can be described thus: Antibody binding ELISA, cynomolgus CD70. Particulars: full IgG, FIG. 3. As for the experimental part:
The binding specificity of the CD70 antibodies was tested by ELISA according to a standard protocol. Briefly, 96-well micro-plates were coated with 2 μg/ml of human or cynomolgus CD70 recombinant protein in PBS at 100 μl per well and incubated overnight at 4° C. The plates were washed twice with TBS+0.5% Tween20. 200 μL of blocking buffer (2% BSA in PBS) was added to each well, and the plates were incubated at 37° C. for 2 hours. The plates were washed using the wash buffer mentioned above. Serially diluted antibodies were added to the ELISA plates using 100 μl per well, and the plates were incubated for 1 hour at room temperature. Then plates were washed 3 times. HRP conjugated anti-human Fc antibody solution (Sigma, I18885-2ML, diluted with blocking buffer) was added to the plates using 100 μl per well. The plates were incubated at room temperature for 1 hour and then washed 3 times. Then the TMB solution was added to plates using 100 μl per well and the plates were placed at RT for 5-15 mins. Then the stop solution (2M H2SO4) was added using 50 μl per well. The absorbance was measured at A450 and A630.

B1: 2E7: anti-CD70 antibody clone, VH SEQ 7 and VL SEQ 8; tested as scFv and full human IgG1/kappa (antibody, V domains shown)
VH: QVQLQESGPGLVKPSETLSLTCTVSGGSVSSDYYYWSWIRQPPGKGLEWLGYIYYSGSTNYNPSLKSRVTISVDTSKNQFSLKLRSVTTADTAVYYCARGDGDFLGVCFDYWGQGTLVTVSS
VL: EIVLTQSPATLSLSPGERATLSCRASQSVSSYLAWYQQKPGQAPRLLIFDASNRATGIPARFSGSGSGTDFTLTISSLEPEDFAVYYCQQRSNWPLTFGGGTKVEIK
modifications: Synthetic 2E7 VH amino acid sequence; Synthetic 2E7 VL amino acid sequence
notes: tested as scFv and full human IgG1/kappa
B1: in the experiment with 786-O cells (based on the cell binding affinity), the “absolute amount of antibody internalized into cell vs parent antibody 69A7” value is on record as “higher absolute amount of antibody internalized into cell than the parent antibody 69A7”. The “internalization, time course” value in the experiment on 786-O cells (up to 4 hr, FIG. 13) is recorded as “rapid internalization”. The Response result in experiment [1] (RAT CD70 3.13 nM) was “*0.0012”; in experiment [1] (RAT CD70 6.25 nM), “*0.0192”; in experiment [1] (RAT CD70 12.5 nM), “*−2.762E−03”; in experiment [1] (RAT CD70 25 nM) it was “*0.0069”; in experiment [1] (RAT CD70 50 nM), “*0.0126”; in experiment [1] (RAT CD70 100 nM, dilution series), “*0.0271”. Moreover, the Response entry in experiment [1] (RAT CD70 200 nM) is recorded as “*0.0054”; in experiment [1] (Rat CD70 100 nM, one concentration), “*0.0125”. For the same molecule, the “ka” value in experiment [1] (RAT CD70, multiple dilutions 200-3.13 nM, global fit, responses below range of quantification) stood at 5.905e+06 M⁻¹ s⁻¹; in experiment [1] (Rat CD70 100 nM, one concentration, response below range of quantification) it was 4641 M⁻¹ s⁻¹. Moreover, the “cross-reactivity to rat CD70” value in experiment [1] (multiple dilutions, Table 10) is “no cross-reactivity”; in experiment [1] (one concentration (100 nM), Table 9) it was “no cross-reactivity”. Further, the “cross binding activity to the cyno-antigen” value in experiment [2] is recorded as “better cross binding activity to the cyno-antigen than antibody 69A7”.

These data come from US20250066490A1, “ANTI-CD70 ANTIBODIES, CONJUGATES THEREOF AND METHODS OF USING THE SAME” (ProfoundBio US Co., priority 2021, published 2025).
